From publication PMC6199259, “Structural and functional insights into the interaction and targeting hub TMD0 of the polypeptide transporter TAPL” (Scientific Reports, 2018) come the findings set out here.

Assay [1] addresses cf-TMD0-His (M1 – P142), cell-free expressed (human) (UniProt Q9NP78). In words: SEC-MALS; 400 µg cf-TMD0-His on TSK-GEL G3000SWXL, 4 °C; 25 mM Na acetate, 300 mM NaCl, 0.7% c6-DHPC, pH 5.0; three-detector method (UV, refractive index, light scattering). Background: SEC sorts molecules by how far they enter the pores of the column.
Another assay addresses T1, coreTAPLmV (Homo sapiens, UniProt Q9NP78).
T1 construct: gene ABCB9
Conditions: 3 mM ATP, 3 uM RRYC(fluorescein)KSTEL, 3 mM MgCl2, pH 7.5, 37 °C, 15 min; with cf-TMD0-His co-reconstituted.

Another assay deals with T2, TmrAB (Thermus thermophilus, UniProt Q72J04+Q72J05).
T2 construct: gene TT_C0976
The conditions noted are these: 3 mM ATP, 3 uM RRYC(fluorescein)KSTEL, 3 mM MgCl2, pH 7.5, 37 °C, 15 min; with cf-TMD0-His co-reconstituted.

In assay [2] the target is cf-TMD0-His S138C, MTSL labeled (human) (UniProt Q9NP78). The assay can be described thus: PELDOR (DEER) spectroscopy; MTSL labeled single cysteine cf-TMD0-His in c6-DHPC with 15–20% deuterated glycerol, frozen; Q-band (33.4 GHz), 50 K; modulation depth and distance distribution by Tikhonov regularization.
Assay [3] deals with cf-TMD0-His S28C, MTSL labeled (human) (UniProt Q9NP78). The assay is described as above.

As a reminder, the stoichiometry N is a count of units in the complex or per binding partner.

Regarding “cf-TMD0-His (M1 – P142), cell-free expressed (from UniProt Q9NP78 1-142) (domain or fragment)”, the stoichiometry N in assay [1] stood at 2. As for `Nc1ncnc2c1ncn2[C@@H]1O[C@H](COP(=O)(O)OP(=O)(O)OP(=O)(O)O)[C@@H](O)[C@H]1O` [ATP], the “ATP-dependent peptide transport in proteoliposomes, fluorescence” value on coreTAPLmV and at TmrAB was “Functional reconstitution of coreTAPLmV as well as TmrAB into liposomes was demonstrated by ATP-dependent peptide transport” in each case. In assay [2], “cf-TMD0-His S138C, MTSL labeled (from UniProt Q9NP78 1-142) (domain or fragment)” yielded a stoichiometry N of 2. In assay [3], “cf-TMD0-His S28C, MTSL labeled (from UniProt Q9NP78 1-142) (domain or fragment)” yielded a stoichiometry N of 2.
